The values below come from patent publication US20230272011A1 (AVACTA LIFE SCIENCES, published 2023).

The EC50 (read off the curve) is the midpoint of the concentration-response curve. As a reminder, the EC50 is the midpoint of the concentration-response curve. Read a high EC50 as a less potent agent. As usually defined, the Kd is the concentration at which binding is half-saturated. The term koff denotes a measure of how fast the partners let go of each other. Read a high koff as a short-lived complex. One may read the kon as the rate constant with which the complex forms. Low values mean slower complex formation, high ones faster complex formation.

Assay [1] addresses T1, human PD-L1-Fc (R&D Systems) chimeric protein (human, UniProt Q9NZQ7 19-239).
T1 construct: Bought reagent; also called rhPD-L1-Fc; huPD-L1; Fc part of the bought chimera not given, not described
Kind of assay: binding ELISA on coated human PD-L1 Fc ('Anti-PD-L1 ELISA'). The protocol:
Briefly, human PD-L1 Fc (R&D Systems) chimeric protein was coated onto 96 well plates at 0.5 μg/mL in carbonate buffer. After saturation with 5% casein/PBS buffer, plates were washed and a dilution of conjugated AFFIMER® polypeptide or unconjugated control were incubated for 90 minutes. Plates were then washed, a biotinylated polyclonal anti-cystatin A antibody (R&D Systems) added, and the plates incubated for 1 hour. Plates were washed and bound AFFIMER® polypeptide was detected using streptavidin-HRP. After a last washing step, TMB was added and the plate was read at 450 nm.
(In general: ELISA stands for enzyme-linked immunosorbent assay.)

Assay [2] deals with T1, human PD-L1-Fc (R&D Systems) chimeric …. Kind of assay: binding ELISA on coated human PD-L1-Fc (table on the sheet is headed 'IC50 (nM)'; the text calls these values EC50). The protocol:
Briefly, human PD-L1-Fc (R&D Systems) chimeric protein was coated on 96 well plates at […] in carbonate buffer. After saturation with 5% casein/PBS buffer, the plates were washed and a dilution of AFFIMER® polypeptides or controls were incubated for 90 minutes. Plates were then washed and a biotinylated polyclonal antibody anti-cystatin A (R&D Systems) was added for 1 hour. Plates were washed and AFFIMER® polypeptides were detected using streptavidin-HRP. After a last washing step, TMB was added for the development of the experiment and plates were read at 450 nm.

The target in assay [3] is T2, human serum albumin (human, UniProt P02768 25-609).
T2 construct: mature; Bought protein; biotinylated in the Octet and HTRF assays; also called HSA; HuSA
Kind of assay: binding ELISA on coated HSA, pH 7.4. The protocol:
After saturation with 5% PBS Casein pH 7.5, plates were washed and a dilution of AFFIMER® polypeptides or controls were incubated for 90 minutes. Plates were then washed, and a biotinylated polyclonal antibody anti-cystatin A (R&D Systems) was added for 1 hour. Plates were washed and AFFIMER® polypeptides were detected using streptavidin-HRP. After a last washing step, TMB was added for the development of the experiment and the plates were read at 450 nm.

The target of assay [4] is T1, human PD-L1-Fc (R&D Systems) chimeric …. Kind of assay: SPR (Biacore), immobilised rhPD-L1-Fc, Affimer analyte. Here is the method: ILF dimer production from E. coli was performed as described in Example 3. Briefly, protein was purified using three stages: affinity capture, IEX, and preparative SEC. […] To analyze PD-L1-Fc binding kinetics, a Biacore T200 kinetic analysis was performed using running buffer HBS-EP+ and series S sensor CM5 (GE Healthcare) chip Fc2 immobilized with PD-L1-Fc (R&D Systems) in 10 mM sodium acetate pH 4.0 using amine coupling reagents (GE Healthcare). The concentration titration of ILF AFFIMER® polypeptides was run as analyte at a flow rate of 30 μl/min. […] with 3 mM NaOH (GE healthcare) for 20 seconds at 20 μl/min flow rate. The Fc2-1 data blank was subtracted and fit to a 1:1 Langmuir binding model (Biacore evaluation software; GE) to calculate an apparent KD value.
ILF production in E. coli was performed as described in Example 3 using protein purified using affinity capture, IEX, and preparative SEC. Protein purity was assessed using SDS-PAGE and SEC-HPLC.
For orientation: SPR reads the build-up and loss of mass on a sensor chip optically.

Assay [5] has as its target T2, human serum albumin. Kind of assay: SPR (Biacore), immobilised HSA, Affimer analyte. The protocol: Affinities for mouse, human, and cynomolgus serum were also measured at pH 7.4 for four (4) AFFIMER® binders using surface plasmon resonance (SPR) (FIG. 5, Table 5). […] A concentration titration of AFFIMER® monomers was run as analyte at a flow rate of 30 μl/min or 60 μl/min. Fc2-1, Fc3-1 and Fc4-1 kinetic data was blank subtracted and fit to a 1:1 Langmuir binding model (BIAcore Evalution software; GE) to calculate KD values. […]

Assay [6] concerns the target human PD-L1 (PD-1/PD-L1 blockade Bioassay, Promega) (human, UniProt Q9NZQ7 19-290, limits assumed). Kind of assay: cell-based or functional assay.
The target of assay [7] is T1, human PD-L1-Fc (R&D Systems) chimeric …. Kind of assay: Biacore single cycle kinetics on human PD-L1 Fc.

T1 sequence (Q9NZQ7 19-239, change not shown): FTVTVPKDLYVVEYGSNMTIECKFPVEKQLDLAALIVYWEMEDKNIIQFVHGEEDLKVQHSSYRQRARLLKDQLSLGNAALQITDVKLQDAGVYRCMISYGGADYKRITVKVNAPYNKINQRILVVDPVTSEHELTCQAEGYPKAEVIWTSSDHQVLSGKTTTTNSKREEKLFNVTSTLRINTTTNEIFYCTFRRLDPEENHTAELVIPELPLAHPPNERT
human PD-L1 (PD-1/PD-L1 blockade Bioassay, Promega), sequence (Q9NZQ7 19-290 limits assumed): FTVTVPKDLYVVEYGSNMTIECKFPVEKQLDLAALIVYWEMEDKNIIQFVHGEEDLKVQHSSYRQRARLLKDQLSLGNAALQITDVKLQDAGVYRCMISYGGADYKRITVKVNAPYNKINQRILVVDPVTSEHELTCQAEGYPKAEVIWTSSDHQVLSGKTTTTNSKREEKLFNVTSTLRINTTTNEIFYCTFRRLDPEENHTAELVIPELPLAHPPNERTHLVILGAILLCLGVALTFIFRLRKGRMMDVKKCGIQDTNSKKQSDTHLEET

B1: AVA04-251 BH-800 (designed binder)
chain: MIPRGLSEAKPATPEIQEIVDKVKPQLEEKTNETYGKLEAVQYKTQVLAREGRQDWVLSTNYYIKVRAGDNKYMHLKVFNGPWVPFPHQQLADRVLTGYQVDKNKDDELTGFAEAAAKEAAAKEAAAKEAAAKEAAAKEAAAKMIPRGLSEAKPATPEIQEIVDKVKPQLEEKTNETYGKLEAVQYKTQVLAREGRQDWVLSTNYYIKVRAGDNKYMHLKVFNGPWVPFPHQQLADRVLTGYQVDKNKDDELTGFC
modifications: IRDye 800CW conjugated with maleimide chemistry (C-terminal cysteine construct)
notes: E. coli product
As to B1, the half-maximal effective concentration (EC50 (read off the curve)) in assay [1] is ~0.04 nM.

B2: AVA04-251 BH-Cys (designed binder)
single chain: B1 chain
Regarding B2, in assay [1], the “EC50 (read off the curve)” value was ~0.04 nM.

B3: AVA04-251 XT14-800 (designed binder)
chain: MIPRGLSEAKPATPEIQEIVDKVKPQLEEKTNETYGKLEAVQYKTQVLAREGRQDWVLSTNYYIKVRAGDNKYMHLKVFNGPWVPFPHQQLADRVLTGYQVDKNKDDELTGFAEAAAKEAAAKEAAAKEAAAKEAAAKEAAAKMIPRGLSEAKPATPEIQEIVDKVKPQLEEKTNETYGKLEAVQYKTQVLAREGRQDWVLSTNYYIKVRAGDNKYMHLKVFNGPWVPFPHQQLADRVLTGYQVDKNKDDELTGFAEAAAKEAAAKEAAAKEAAAKEAAAKEAAAKMIPRGLSEAKPATPEIQEIVDKVKPQLEEKTNETYGKLEAVQYKTQVLANFFQRRWPGSTNYYIKVRAGDNKYMHLKVFNGPWKFRNTDRGADRVLTGYQVDKNKDDELTGFC
modifications: IRDye 800CW conjugated with maleimide chemistry (C-terminal cysteine construct)
Turning to B3, the concentration giving a half-maximal response (EC50 (read off the curve)) in assay [1] was ~0.02 nM.

B4: AVA04-251 XT14-Cys (designed binder)
single chain: B3 chain
For B4, the “EC50 (read off the curve)” value in assay [1] is ~0.02 nM.

B5: AVA04-251 XT15 (designed binder)
chain: MIPRGLSEAKPATPEIQEIVDKVKPQLEEKTNETYGKLEAVQYKTQVLAREGRQDWVLSTNYYIKVRAGDNKYMHLKVFNGPWVPFPHQQLADRVLTGYQVDKNKDDELTGFAEAAAKEAAAKEAAAKEAAAKEAAAKEAAAKMIPRGLSEAKPATPEIQEIVDKVKPQLEEKTNETYGKLEAVQYKTQVLANFFQRRWPGSTNYYIKVRAGDNKYMHLKVFNGPWKFRNTDRGADRVLTGYQVDKNKDDELTGFAEAAAKEAAAKEAAAKEAAAKEAAAKEAAAKMIPRGLSEAKPATPEIQEIVDKVKPQLEEKTNETYGKLEAVQYKTQVLAREGRQDWVLSTNYYIKVRAGDNKYMHLKVFNGPWVPFPHQQLADRVLTGYQVDKNKDDELTGFHHHHHH
B5 yielded an EC50 in assay [2] of 0.064 nM. In addition, in the assay with human serum albumin [3], a half-maximal response (EC50) required 0.039 nM. In assay [4], this molecule came in with a Kd of 0.704 nM, a koff of 0.000607 s⁻¹ and a kon of 863000 M⁻¹ s⁻¹. Further, in the assay with human serum albumin [5], the Kd is 5.2 nM, the koff stood at 0.0029 s⁻¹ and the on-rate constant (kon) amounted to 557000 M⁻¹ s⁻¹. In assay [6], the “IC50 as headed on the sheet (EC50); PD-1/PD-L1 blockade Bioassay (Promega), fold change relative to assay buffer” value (from here on “IC50 … fold change relative to assay buffer”) worked out at 434 nM.

B6: AVA04-251 BH (designed binder)
chain: MIPRGLSEAKPATPEIQEIVDKVKPQLEEKTNETYGKLEAVQYKTQVLAREGRQDWVLSTNYYIKVRAGDNKYMHLKVFNGPWVPFPHQQLADRVLTGYQVDKNKDDELTGFAEAAAKEAAAKEAAAKEAAAKEAAAKEAAAKMIPRGLSEAKPATPEIQEIVDKVKPQLEEKTNETYGKLEAVQYKTQVLAREGRQDWVLSTNYYIKVRAGDNKYMHLKVFNGPWVPFPHQQLADRVLTGYQVDKNKDDELTGFHHHHHH
notes: also called anti-PD-L1 parental ILF dimer molecule
Consider B6, for which the EC50 in assay [2] was determined as 0.03 nM. In assay [4], this molecule showed a Kd of 1.71 nM, an off-rate constant (koff) of 0.00129 s⁻¹ and a kon of 752000 M⁻¹ s⁻¹. Further, in assay [6], the “IC50 … fold change relative to assay buffer” value was found to be 893 nM.

B7: AVA04-251 XT14 (designed binder)
chain: MIPRGLSEAKPATPEIQEIVDKVKPQLEEKTNETYGKLEAVQYKTQVLAREGRQDWVLSTNYYIKVRAGDNKYMHLKVFNGPWVPFPHQQLADRVLTGYQVDKNKDDELTGFAEAAAKEAAAKEAAAKEAAAKEAAAKEAAAKMIPRGLSEAKPATPEIQEIVDKVKPQLEEKTNETYGKLEAVQYKTQVLAREGRQDWVLSTNYYIKVRAGDNKYMHLKVFNGPWVPFPHQQLADRVLTGYQVDKNKDDELTGFAEAAAKEAAAKEAAAKEAAAKEAAAKEAAAKMIPRGLSEAKPATPEIQEIVDKVKPQLEEKTNETYGKLEAVQYKTQVLANFFQRRWPGSTNYYIKVRAGDNKYMHLKVFNGPWKFRNTDRGADRVLTGYQVDKNKDDELTGFHHHHHH
As for B7, the EC50 in assay [2] amounted to 0.033 nM; with human serum albumin [3] it was 0.062 nM. Besides, the Kd in assay [7] is 0.307 nM; in assay [4], 0.504 nM; in the assay with human serum albumin [5], 8.75 nM. Moreover, the off-rate (koff) turned out to be 0.000277 s⁻¹ in assay [7], 0.00042 s⁻¹ in assay [4] and 0.00282 s⁻¹ with human serum albumin [5]. Further, the on-rate constant (kon) in assay [7] worked out at 903000 M⁻¹ s⁻¹; in assay [4] it was 834000 M⁻¹ s⁻¹; in the assay with human serum albumin [5] it was 322000 M⁻¹ s⁻¹. In assay [6], the “IC50 … fold change relative to assay buffer” value worked out at 176 nM.
